This note sets out measurements from patent US20130171170A1 (published 2013).

Experiment [1] has as its target T1, human CD22-beta-ECD-His tagged soluble antigen (human, UniProt P20273 22-681).
T1 construct: also called soluble CD22 extracellular domain (ECD); Soluble Human CD22
T1 sequence: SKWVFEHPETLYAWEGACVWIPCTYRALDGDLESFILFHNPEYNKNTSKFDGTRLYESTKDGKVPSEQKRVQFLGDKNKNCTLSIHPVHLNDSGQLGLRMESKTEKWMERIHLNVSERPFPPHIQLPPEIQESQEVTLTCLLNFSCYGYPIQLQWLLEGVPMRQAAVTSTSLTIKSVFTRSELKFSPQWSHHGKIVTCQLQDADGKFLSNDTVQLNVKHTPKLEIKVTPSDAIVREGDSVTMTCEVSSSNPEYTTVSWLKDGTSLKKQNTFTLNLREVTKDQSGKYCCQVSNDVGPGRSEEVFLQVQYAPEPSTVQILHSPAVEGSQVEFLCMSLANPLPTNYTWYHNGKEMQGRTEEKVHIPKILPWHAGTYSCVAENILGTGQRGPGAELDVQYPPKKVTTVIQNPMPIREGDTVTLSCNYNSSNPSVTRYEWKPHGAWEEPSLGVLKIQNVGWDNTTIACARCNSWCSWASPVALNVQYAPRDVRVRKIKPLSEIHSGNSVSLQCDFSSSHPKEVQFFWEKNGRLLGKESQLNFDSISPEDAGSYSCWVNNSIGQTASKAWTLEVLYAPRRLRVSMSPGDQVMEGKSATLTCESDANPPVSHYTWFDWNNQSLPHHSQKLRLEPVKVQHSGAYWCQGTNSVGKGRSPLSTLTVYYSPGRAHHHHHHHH
In words: SPR (BIACORE 3000), antibody coupled to the chip, soluble CD22-beta-ECD-His injected, 25 C. The protocol:
The binding affinity of murine and humanized 10F4 antibody for soluble CD22 extracellular domain (ECD) was determined by surface plasmon resonance measurement using a BIACORE® 3000 system (Biacore, Inc., Piscataway, N.J.). Briefly, carboxymethylated dextran biosensor chips (CMS, Biacore Inc.) were activated with N-ethyl-N′-(3-dimethylaminopropyl)-carbodiimide hydrochloride (EDC) and N-hydroxysuccinimide (NHS) according to the supplier's instructions. These activated chips were coated with anti-CD22 IgG1 antibody 10F4 (murine or humanized) by dilution to 5 μg/ml with 10 mM sodium acetate, pH 4.8, before injection at a flow rate of […] to achieve approximately 500 response units (RU) of coupled antibody. Next, 1M ethanolamine was injected to block unreacted groups. […] Association rates (kₒₙ) and dissociation rates (koff) were calculated using a simple one-to-one Langmuir binding model (BIAevaluation Software version 3.2). The equilibrium dissociation constant (Kd) was calculated as the ratio koff/kₒₙ. Anti-CD22 antibody, RFB4, was used as a control (Chemicon International, Inc., Temecula, Calif., catalog no. CBL147).
Background: Surface plasmon resonance follows binding to a sensor surface in real time, without labels.

Experiment [2] has as its target T2, CD22 variant lacking domain 2 (Δ2), expressed on CHO cells (human, UniProt P20273 22-847).
T2 construct: Membrane protein on stably transformed CHO cells; Numbering of full length precursor CD22beta (Wilson et al. 1991); also called CD22 lacking domain 2
T2 chain: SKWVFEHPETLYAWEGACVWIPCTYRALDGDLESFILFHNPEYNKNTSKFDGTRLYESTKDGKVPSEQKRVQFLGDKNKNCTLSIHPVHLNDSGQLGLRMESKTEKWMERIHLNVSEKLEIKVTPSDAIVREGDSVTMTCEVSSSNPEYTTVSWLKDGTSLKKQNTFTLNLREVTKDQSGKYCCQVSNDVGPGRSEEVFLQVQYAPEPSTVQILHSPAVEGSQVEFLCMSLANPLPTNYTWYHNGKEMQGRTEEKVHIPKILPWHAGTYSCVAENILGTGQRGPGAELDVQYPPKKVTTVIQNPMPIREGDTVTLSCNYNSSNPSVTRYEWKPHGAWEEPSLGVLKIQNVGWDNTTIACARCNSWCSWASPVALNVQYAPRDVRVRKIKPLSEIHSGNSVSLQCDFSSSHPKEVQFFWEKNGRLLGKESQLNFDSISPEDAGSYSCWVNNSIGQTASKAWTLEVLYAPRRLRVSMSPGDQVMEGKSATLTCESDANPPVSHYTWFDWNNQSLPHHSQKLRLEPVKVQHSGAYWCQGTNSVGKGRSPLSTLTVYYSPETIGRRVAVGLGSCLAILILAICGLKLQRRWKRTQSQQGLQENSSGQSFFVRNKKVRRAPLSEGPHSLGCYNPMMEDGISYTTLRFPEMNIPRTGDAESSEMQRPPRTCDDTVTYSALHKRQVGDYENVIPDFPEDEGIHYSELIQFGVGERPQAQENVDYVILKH
The experiment can be described thus: flow cytometry on CHO cells expressing the CD22 deletion variant; goat anti-mouse IgG Alexa 488. The protocol:
CD22 sequences lacking various of the seven immunoglobulin-like domains of the major CD22 isoform (CD22beta) were cloned and transformed into cells for stable expression. For example, CD22 variants lacking domain 1 (Δ1), domain 2 (Δ2), or domains 3 and 4 (Δ3,4) were cloned, transformed into CHO cells, and expressed on the cells. Control cells expressed CD22beta. Deletions were performed using Stratagene QuikChange XL™ reagent kit. Deletion of domain 1 was performed by deletion of amino acids 22-138; deletion of domain 2 was performed by deletion of amino acids 139-242; and deleted domains 3 and 4 were available as the minor isoform CD22alpha (deletion of amino acids 241-417). All amino acid numbers refer to the numbering of full length precursor CD22beta by Wilson, G. L. et al. (see FIG. 1 in Wilson, G. L. et al., J. Exp. Med. 173:137-146 (1991)). FIG. 14 is a diagram of the deleted domains. Binding was determined by flow cytometry using an isotype control. […] Binding of 5E8.1.8 was detected using biotinylated goat anti-mouse IgG plus streptavidin PE.
Background: In flow cytometry, cells or beads pass a laser one at a time.

B1: murine anti-human CD22 10F4.4.1 monoclonal antibody (antibody, V domains shown)
VH: QVQLQQSGPELVKPGASVKISCKASGYEFSRSWMNWVKQRPGQGREWIGRIYPGDGDTNYSGKFKGKATLTADKSSSTAYMQLSSLTSVDSAVYFCARDGSSWDWYFDVWGAGTTVTVSS
VL: DILMTQTPLSLPVSLGDQASISCRSSQSIVHSNGNTFLEWYLQKPGQSPKLLIYKVSNRFSGVPDRFSGSGSGTDFTLKISRVEAEDLGVYYCFQGSQFPYTFGGGTKVEIK
notes: Murine hybridoma antibody (ATCC PTA-7621); also called mu 10F4; Mu 10F4.4.1
Regarding B1, in experiment [1], the Kd (in general, the equilibrium constant for the complex coming apart) amounted to 15 nM; the koff (as a rule, the first-order rate constant of dissociation) is 0.00028 s⁻¹; the kon (in general, the rate constant with which the complex forms) amounted to 19000 M⁻¹ s⁻¹. The binding result in experiment [2] is “no binding”.
